Among the data in article PMC5037575 are percent of parent values, retold here.

The experiment deals with PB2 polymerase subunit fused to Gluc1, of recombinant WSN virus (WSN-PB2-Gluc1) (UniProt P03427). The settings on record: parent: est. 100; read off a plot.

For “Gluc2-DDX19B wild type (from UniProt Q9UMR2) R428Q”, the percent of parent amounted to 68%.
